Where a chain is given by its changes, count along the chain named. Names may count otherwise. “And” between values parts separate entries of the source, which are not always exact repeats. Equal values may be shown once.
B1: KB001 mouse Fab VH S61T (Fab, V domains shown)
VH: EVQLKQSGPGLVAPSQSLSITCTVSGFSLSIYSVHWVRQPPGKGLEWLGMIWGGGSSDYNTALKSRLSISKDNSKSQVFLKMNSLQTDDTAMYYCARNGNFYAMDYWGQGTSVTVSS
VL: QIVLTQSPAIMSASLGERVTMTCTASSSVSSSFLHWYQQKPGSSPQLWIYSTSNLASGVPARFSGSGSGTSYSLTISSMEAEDAATYYCHQYHHSPYIYTFGGGTKLEIK
B2: KB001 mouse Fab VH Y106L (Fab, V domains shown)
VH: B1 VH with T61S, Y106L
VL: B1 VL
B3: KB001 mouse Fab VH S61N (Fab, V domains shown)
VH: B1 VH with T61N
VL: B1 VL
B4: KB001 mouse Fab VH G99S (Fab, V domains shown)
VH: B1 VH with T61S, G99S
VL: B1 VL
B5: KB001 mouse Fab VH A103S (Fab, V domains shown)
VH: B1 VH with T61S, A103S
VL: B1 VL
B6: KB001 mouse Fab VH S65V (Fab, V domains shown)
VH: B1 VH with T61S, S65V
VL: B1 VL
B7: KB001 mouse Fab VH K64R (Fab, V domains shown)
VH: B1 VH with T61S, K64R
VL: B1 VL
B8: KB001 mouse Fab VH K64A (Fab, V domains shown)
VH: B1 VH with T61S, K64A
VL: B1 VL
B9: KB001 mouse Fab VH S65T (Fab, V domains shown)
VH: B1 VH with T61S, S65T
VL: B1 VL
B10: KB001 mouse Fab VH Y106A (Fab, V domains shown)
VH: B1 VH with T61S, Y106A
VL: B1 VL
B11: KB001 mouse Fab VH S65D (Fab, V domains shown)
VH: B1 VH with T61S, S65D
VL: B1 VL
B12: KB001 mouse Fab VH Y106R (Fab, V domains shown)
VH: B1 VH with T61S, Y106R
VL: B1 VL
B13: KB001 mouse Fab VH Y106V (Fab, V domains shown)
VH: B1 VH with T61S, Y106V
VL: B1 VL
B14: KB001 mouse Fab VH G99Y (Fab, V domains shown)
VH: B1 VH with T61S, G99Y
VL: B1 VL
B15: KB001 mouse Fab VH Y106T (Fab, V domains shown)
VH: B1 VH with T61S, Y106T
VL: B1 VL
B16: KB001 mouse Fab VH N100E (Fab, V domains shown)
VH: B1 VH with T61S, N100E
VL: B1 VL

Target: HRgpA-6H (Porphyromonas gingivalis) (UniProt P28784)
Sequence of UniProt P28784 (P28784 228-860 limits assumed): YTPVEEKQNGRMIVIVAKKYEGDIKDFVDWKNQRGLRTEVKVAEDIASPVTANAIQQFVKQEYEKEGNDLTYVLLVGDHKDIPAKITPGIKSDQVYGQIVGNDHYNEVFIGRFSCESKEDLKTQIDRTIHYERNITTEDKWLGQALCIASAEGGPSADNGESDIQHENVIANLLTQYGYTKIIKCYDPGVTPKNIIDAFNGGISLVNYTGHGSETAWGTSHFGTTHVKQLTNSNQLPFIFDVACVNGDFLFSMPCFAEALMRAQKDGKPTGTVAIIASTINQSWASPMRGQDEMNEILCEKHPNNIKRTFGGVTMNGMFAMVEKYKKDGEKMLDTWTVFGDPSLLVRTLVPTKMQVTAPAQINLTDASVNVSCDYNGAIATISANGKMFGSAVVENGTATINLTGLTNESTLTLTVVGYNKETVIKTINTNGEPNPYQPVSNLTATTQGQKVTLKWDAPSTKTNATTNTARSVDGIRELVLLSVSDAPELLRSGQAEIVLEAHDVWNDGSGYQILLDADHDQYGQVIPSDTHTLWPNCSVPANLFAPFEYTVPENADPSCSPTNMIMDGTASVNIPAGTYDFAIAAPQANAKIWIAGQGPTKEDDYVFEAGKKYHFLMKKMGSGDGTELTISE
Assay: ELISA, coated HRgpA-6H

Binder	OD450 nm	Ratio OD(Variant)/OD(WT)
B1	0.543 and 0.447	1.1 and 0.906
B2	0.791	1.03
B3	0.537	1.09
B4	0.809	1.01
B5	0.909	1.05
B6	0.867	1.05
B7	0.87	1.05
B8	0.89	1.08
B9	0.883	1.07
B10	0.821 and 0.835	1.07 and 1.09
B11	0.866 and 0.897	1.05 and 1.08
B12	0.793	1.03
B13	0.795 and 0.84 and 0.802	1.03 and 1.09 and 1.04
B14	0.835	1.05
B15	0.827	1.07
B16	0.886	1.05

From patent publication US20240400654A1
